Assay [1] deals with biotinylated human SIRPα allele 1 domain 1 (a1d1) (human) (UniProt P78324). Nature of the assay: SPR, Biacore T100, biotinylated SIRPα on SA chip, 25 C, 1:1 Langmuir model. In general terms: In SPR one partner is held on a chip, and binding of the other changes the refractive index at the surface.
Assay [2] deals with biotinylated human SIRPα allele 2 domain 1 (a2d1) (human) (UniProt P78324). The description is as above.
Chain of biotinylated human SIRPα allele 2 domain 1 (a2d1) (human) (P78324 other isoform, or with tags, fused parts or gaps): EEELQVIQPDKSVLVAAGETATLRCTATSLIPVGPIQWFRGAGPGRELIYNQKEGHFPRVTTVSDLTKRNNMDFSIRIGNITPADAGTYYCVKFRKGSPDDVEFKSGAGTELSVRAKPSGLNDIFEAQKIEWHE

Chain of biotinylated human SIRPα allele 1 domain 1 (a1d1) (human) (P78324 other isoform, or with tags, fused parts or gaps): as above

B1: high affinity CD47 variant N363 C15G (designed binder)
chain: WQLPLLFNKTKSVEFTFGNDTVVIPCFVTNMEAQNTTEVYVKWKFKGRDIYTFDGDKNKSTVPTDFSSAKIEVSQLLKGDASLKMDKSDAVSHTGNYTCEVTELTREGETIIELKYRVVSHHHHHHHH
As to B1, the Kd (in general, the free concentration of one partner at which half of the binding sites on the other are occupied at equilibrium, for simple one-to-one binding) in assay [1] is 0.296 nM; in assay [2], 1.1 nM.

The values above are taken from patent US20180127480A1.
